Legend:
[1] = molecular target: TbRGG2 RRM-Cterm (residues 203–320) (T. brucei); experiment: SEC; RRM-Cterm at 16 mg/ml mixed with equimolar U20 RNA, Superdex 75; 20 mM Tris-HCl pH 7.5, 150 mM NaCl, 5% glycerol, 1 mM DTT
[2] = molecular target: TbRGG2 RRM-Cterm (residues 203–320) (T. brucei); experiment: SEC; protein alone at 10 mg/ml on Superdex 75; 20 mM Tris-HCl pH 7.5, 150 mM NaCl, 5% glycerol, 1 mM DTT; elution volume compared with protein standards
TbRGG2 RRM-Cterm W215A = TbRGG2 RRM-Cterm W215A (Trypanosoma brucei, UniProt Q389P7 193-310, W205A); experiment: FP; FP: 20 mM Tris-HCl pH 7.5, 5% glycerol, 50 mM NaCl (a further '20 mM' printed without component), 1 nM labelled RNA, 25 C; details: protein: recombinant; tags: His6 cleaved (thrombin); chain copies: 2; label: 5'-fluorescein (FP)
TbRGG2 RRM W215A = TbRGG2 RRM W215A (Trypanosoma brucei, UniProt Q389P7 193-259, W205A); experiment: as above; details: protein: recombinant; tags: His6 cleaved (thrombin); label: 5'-fluorescein (FP)

Row | Molecule | stoichiometry N [1] | stoichiometry N [2] | binding result (TbRGG2 RRM-Cterm W215A) | binding result (TbRGG2 RRM W215A)
1 | TbRGG2 RRM-Cterm (residues 203–320) (domain or fragment) | 2 | 2 |  | 
2 | UUUUUUUUUUUUUUUUUUUU (ssRNA) [U20] |  |  | no binding | no binding

Source: article PMC6393287, “The RRM of the kRNA-editing protein TbRGG2 uses multiple surfaces to bind and remodel RNA”
